From the RNAGym collection of RNA variant scans (doi:10.7554/elife.80360) come the findings set out here.

B1: Hairpin Ribozyme (parent)
chain: GUCCUCUUUCACGUGCGCGUGAAAGAGAGAAGUGAACCAGAGAAACACACGUUGUGGUAUAUUACCUGGUA

The variants in this data set derive from B1. As to the kind of experiment: self-cleavage, relative activity (ratio to wild type); higher = more cleavage; co-transcriptional.
Regarding GUCCUCUUUCACGUGCGCGUGAAAGGGAGAAGUGAACCAGAGAAAAACACGUUGUGGUAUAUUACCUGGUA, the self-cleavage was determined as 0.0799.
On to GUCCUCUUUCACGUGCGCGUGAAAGGGAGAAGUGAACCAGAGAAAUACACGUUGUGGUAUAUUACCUGGUA, for which the self-cleavage is 0.267.
The result for GUCCUCUUUCACGUGCGCGUGAAAGGGAGAAGUGAACCAGAGAAGCACACGUUGUGGUAUAUUACCUGGUA reads 0.132; that for GUCCUCUUUCACGUGCGCGUGAAAGCGAGAAGUGAACCAGAGAAACACACGUUGUGGUAGAUUACCUGGUA, 0.365.
The result for GUCCUCUUUCACGUGCGCGUGAAAGCGAGAAGUGAACCAGAGAAACACACGUUGUGGUACAUUACCUGGUA reads 0.602; that for GUCCUCUUUCACGUGCGCGUGAAAGUGAGGAGUGAACCAGAGAAACACACGUUGUGGUAUAUUACCUGGUA, 0.142.
The result for GUCCUCUUUCACGUGCGCGUGAAAGCGAGAAGUGAACCAGAGAAACACAAGUUGUGGUAUAUUACCUGGUA reads 0.117; that for GUCCUCUUUCACGUGCGCGUGAAAGGGAAAAGUGAACCAGAGAAACACACGUUGUGGUAUAUUACCUGGUA, 0.159.
Turning to GUCCUCUUUCACGUGCGCGUGAAAGGGACAAGUGAACCAGAGAAACACACGUUGUGGUAUAUUACCUGGUA, the self-cleavage turned out to be 0.139.
The result for GUCCUCUUUCACGUGCGCGUGAAAGGGAGAAGUGAACCAGAGAAACACACGUUGUGGUAUAUUACCUCGUA reads 0.312.
The result for GUCCUCUUUCACGUGCGCGUGAAAGUGAGAGGUGAACCAGAGAAACACACGUUGUGGUAUAUUACCUGGUA reads 0.389; that for GUCCUCUUUCACGUGCGCGUGAAAGCAAGAAGUGAACCAGAGAAACACACGUUGUGGUAUAUUACCUGGUA, 0.139.
The result for GUCCUCUUUCACGUGCGCGUGAAAGGGAGUAGUGAACCAGAGAAACACACGUUGUGGUAUAUUACCUGGUA reads 0.108.
Consider GUCCUCUUUCACGUGCGCGUGAAAGGGAGAAGUGAACCAGAGAAACACGCGUUGUGGUAUAUUACCUGGUA, for which the self-cleavage is 0.665.
The result for GUCCUCUUUCACGUGCGCGUGAAAGGGAGAAGUGAACCCGAGAAACACACGUUGUGGUAUAUUACCUGGUA reads 0.571; that for GUCCUCUUUCACGUGCGCGUGAAAGGGAGAAGUGAACCAGAGAAACACACGUUGUGGUAUAUAACCUGGUA, 0.101.
The result for GUCCUCUUUCACGUGCGCGUGAAAGGGAGAAGUGAACCAGAGAAACACACGUUGUGGUAUAUCACCUGGUA reads 0.225; that for GUCCUCUUUCACGUGCGCGUGAAAGCGAGAAGUGAAUCAGAGAAACACACGUUGUGGUAUAUUACCUGGUA, 0.446.
The result for GUCCUCUUUCACGUGCGCGUGAAAGCGAGAAGUGAACCAGAGAAACACACGUUGUGGUAUAUUAGCUGGUA reads 0.226.
For GUCCUCUUUCACGUGCGCGUGAAAGGGAGACGUGAACCAGAGAAACACACGUUGUGGUAUAUUACCUGGUA, the self-cleavage is 0.114.
The result for GUCCUCUUUCACGUGCGCGUGAAAGGGAGAUGUGAACCAGAGAAACACACGUUGUGGUAUAUUACCUGGUA reads 0.183.
The result for GUCCUCUUUCACGUGCGCGUGAAAGGGAGAAGUGAACCAUAGAAACACACGUUGUGGUAUAUUACCUGGUA reads 0.128; that for GUCCUCUUUCACGUGCGCGUGAAAGGGAGAAGUGAACCAGAGAAACACACGUUGUGGUAUAUUACAUGGUA, 0.171; that for GUCCUCUUUCACGUGCGCGUGAAAGGGAGAAGUGAACCAGAGAAACACACGUUGUGGUAUAUUACUUGGUA, 0.429.
The result for GUCCUCUUUCACGUGCGCGUGAAAGGGGGAAGUGAACCAGAGAAACACACGUUGUGGUAUAUUACCUGGUA reads 1.12; that for GUCCUCUUUCACGUGCGCGUGAAAGGGAGAAGUGAACCAGAGAAACACACGUUGUGGUAUGUUACCUGGUA, 0.161; that for GUCCUCUUUCACGUGCGCGUGAAAGCGAGAAGUGAACCAGAGAAACACACGUUGUGGUAUAUUACCUGAUA, 0.327.
For the variant GUCCUCUUUCACGUGCGCGUGAAAGGGAGAAGUGAACCAGAGAAACACACGUUGUGGUAUAUUACCUGGCA, the self-cleavage was 0.89.
The result for GUCCUCUUUCACGUGCGCGUGAAAGGGAGAAGUGAACCAGAGAGACACACGUUGUGGUAUAUUACCUGGUA reads 0.241.
The result for GUCCUCUUUCACGUGCGCGUGAAAGGGAGAAGUGAACCAGAGACACACACGUUGUGGUAUAUUACCUGGUA reads 0.0629; that for GUCCUCUUUCACGUGCGCGUGAAAGGGAGAAGUGAACCAGCGAAACACACGUUGUGGUAUAUUACCUGGUA, 1.25; that for GUCCUCUUUCACGUGCGCGUGAAAGCGAGAAGUUAACCAGAGAAACACACGUUGUGGUAUAUUACCUGGUA, 1.03.
The result for GUCCUCUUUCACGUGCGCGUGAAAGCGAGAAGUGAACCAAAGAAACACACGUUGUGGUAUAUUACCUGGUA reads 0.295; that for GUCCUCUUUCACGUGCGCGUGAAAGGGAGAAGGGAACCAGAGAAACACACGUUGUGGUAUAUUACCUGGUA, 0.0904; that for GUCCUCUUUCACGUGCGCGUGAAAGGGAGAAGCGAACCAGAGAAACACACGUUGUGGUAUAUUACCUGGUA, 0.0771.
Consider GUCCUCUUUCACGUGCGCGUGAAAGCGAGAAGUGAACCAGAGAAACACACGUUGUGGUAUAAUACCUGGUA, for which the self-cleavage is 0.269.
Turning to GUCCUCUUUCACGUGCGCGUGAAAGCGAGAAGUGAACCAGAGAAACACACGUUGUGGUAUACUACCUGGUA, the self-cleavage turned out to be 0.213.
The result for GUCCUCUUUCACGUGCGCGUGAAAGGUAGAAGUGAACCAGAGAAACACACGUUGUGGUAUAUUACCUGGUA reads 0.121.
